# Measured values from PMC7442826, “The mechanism of activation of the actin binding protein EHBP1 by Rab8 family members” (Nature Communications, 2020).
# T1: Rab10_(1-175_T73E) (phosphomimetic Rab10) (human, UniProt P61026 1-175, T73E)
# T1 construct: Rab10 G-domain, human, residues 1-175, phosphomimetic switch II mutant; also called Rab10_(T73E); 10_(T73E)
# T1 sequence (looked up): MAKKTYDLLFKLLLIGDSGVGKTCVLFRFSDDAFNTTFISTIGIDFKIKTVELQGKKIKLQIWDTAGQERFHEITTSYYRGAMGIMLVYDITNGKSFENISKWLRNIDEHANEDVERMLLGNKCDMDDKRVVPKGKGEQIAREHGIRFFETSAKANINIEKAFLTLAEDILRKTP
# T2: Rab10_(1-175) (human Rab10 G-domain) (human, UniProt P61026 1-175)
# T2 construct: Rab10 G-domain, human, residues 1-175
# T2 sequence (looked up): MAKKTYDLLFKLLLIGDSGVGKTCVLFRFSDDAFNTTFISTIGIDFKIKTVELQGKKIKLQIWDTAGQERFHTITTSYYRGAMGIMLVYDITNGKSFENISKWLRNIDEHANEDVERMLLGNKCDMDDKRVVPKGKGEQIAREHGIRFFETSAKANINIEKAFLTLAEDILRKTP
# T3: Rab8a_(1-176_T72E) (phosphomimetic Rab8a) (human, UniProt P61006 1-176, T72E)
# T3 construct: Rab8a G-domain, human, residues 1-176, phosphomimetic switch II mutant; also called Rab8a_(T72E)
# T3 sequence (looked up): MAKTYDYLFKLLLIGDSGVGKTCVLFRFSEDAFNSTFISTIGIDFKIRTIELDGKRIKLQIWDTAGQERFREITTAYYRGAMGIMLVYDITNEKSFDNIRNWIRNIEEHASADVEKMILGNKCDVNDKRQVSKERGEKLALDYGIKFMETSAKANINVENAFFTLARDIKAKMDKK
# B1: Rab8a_(1-176) (human Rab8a G-domain) (domain or fragment, UniProt P61006 1-176, looked up)
# chain: MAKTYDYLFKLLLIGDSGVGKTCVLFRFSEDAFNSTFISTIGIDFKIRTIELDGKRIKLQIWDTAGQERFRTITTAYYRGAMGIMLVYDITNEKSFDNIRNWIRNIEEHASADVEKMILGNKCDVNDKRQVSKERGEKLALDYGIKFMETSAKANINVENAFFTLARDIKAKMDKK
# notes: Rab8a G-domain, human, residues 1-176; in the stopped-flow assays to the fluorescent mantGppNHp (non-covalent); also called GppNHp Rab8a_(1-176); Rab8a_(GppNHp); source: preparatively loaded with GppNHp or mantGppNHp
# B2: EHBP1 bMERB domain (bMERB_(1060-1212), full-length bMERB domain) (domain or fragment)
# chain: not shown
# notes: EHBP1 bMERB domain, human, residues 1060-1212, all three predicted helices; PDB 6ZSI and 6ZSJ hold the M1116A and F1120A mutants of the full-length bMERB domain; also called bMERB^EHBP1; full-length construct
# B3: EHBP1 CH (calponin homology) domain (domain or fragment, human)
# chain: GRKPNASQSLLVWCKEVTKNYRGVKITNFTTSWRNGLSFCAILHHFRPDLIDYKSLNPQDIKENNKKAYDGFASIGISRLLEPSDMVLLAIPDKLTVMTYLYQIRAHFSGQ
# notes: EHBP1 central CH domain, human; also called CH domain; CH^EHBP1
# How the values were obtained:
# Details in all cases: both partners purified
# [1] = target: T4, EHBP1 bMERB domain L1182S (human, UniProt Q8NDI1-1 1060-1212, L1182S); assay: ITC; 500 µM GppNHp Rab titrated into 50 µM bMERB domain; 20 mM Hepes 7.5, 50 mM NaCl, 1 mM MgCl2, 1 mM TCEP; 25 °C; one-site-binding model
# T4 construct: EHBP1 bMERB domain, human, residues 1060-1212 as the wild-type construct; numbers on isoform 1 (Q8NDI1-1); source: E. coli BL21 DE3-RIL, purified
# [2] = target: T5, EHBP1 bMERB domain L1179S (human, UniProt Q8NDI1-1 1060-1212, L1179S); assay: as above
# T5 construct: EHBP1 bMERB domain, human, residues 1060-1212 as the wild-type construct; numbers on isoform 1 (Q8NDI1-1); source: E. coli BL21 DE3-RIL, purified
# [3] = target: T6, EHBP1 bMERB domain V1186A (human, UniProt Q8NDI1-1 1060-1212, V1186A); assay: as above
# T6 construct: EHBP1 bMERB domain, human, residues 1060-1212 as the wild-type construct; numbers on isoform 1 (Q8NDI1-1); source: E. coli BL21 DE3-RIL, purified
# [4] = target: T7, EHBP1 bMERB domain L1156S (human, UniProt Q8NDI1-1 1060-1212, L1156S); assay: as above
# T7 construct: EHBP1 bMERB domain, human, residues 1060-1212 as the wild-type construct; numbers on isoform 1 (Q8NDI1-1); source: E. coli BL21 DE3-RIL, purified
# [5] = target: T8, EHBP1 bMERB domain R1189A (human, UniProt Q8NDI1-1 1060-1212, R1189A); assay: as above
# T8 construct: EHBP1 bMERB domain, human, residues 1060-1212 as the wild-type construct; numbers on isoform 1 (Q8NDI1-1); source: E. coli BL21 DE3-RIL, purified
# [6] = target: T9, EHBP1 bMERB domain N1187A (human, UniProt Q8NDI1-1 1060-1212, N1187A); assay: as above
# T9 construct: EHBP1 bMERB domain, human, residues 1060-1212 as the wild-type construct; numbers on isoform 1 (Q8NDI1-1); source: E. coli BL21 DE3-RIL, purified
# [7] = target: B1; assay: crystal structure; sitting-drop vapor diffusion, 20 °C; 300–400 µM 1:1 complexes
# [8] = target: B1; assay: ITC; 500 µM GppNHp Rab titrated into 50 µM bMERB domain; 20 mM Hepes 7.5, 50 mM NaCl, 1 mM MgCl2, 1 mM TCEP; 25 °C; one-site-binding model
# [9] = target: T1, Rab10_(1-175_T73E) (phosphomimetic …); assay: SEC; analytical SEC, Superdex 75 10/300 GL; 110 µM bMERB domain mixed with 121 µM GppNHp Rab (1:1.1); 20 mM Hepes 7.5, 50 mM NaCl, 1 mM MgCl2, 2 mM DTE; room temperature
# [10] = target: T2, Rab10_(1-175) (human Rab10 G-domain); assay: ITC; 500 µM GppNHp Rab titrated into 50 µM bMERB domain; 20 mM Hepes 7.5, 50 mM NaCl, 1 mM MgCl2, 1 mM TCEP; 25 °C; one-site-binding model
# [11] = target: T3, Rab8a_(1-176_T72E) (phosphomimetic …); assay: as above
# [12] = target: B1; assay: stopped-flow fluorescence kinetics; association: 0.5 µM mantGppNHp Rab8a_(1-176) with 1.5–8 µM bMERB domain, pseudo first order; koff from the y-axis intercept; Rab buffer, 25 °C
# [13] = target: B1; assay: stopped-flow fluorescence kinetics; dissociation: complex of mantGppNHp Rab8a_(1-176) with the bMERB domain (2 µM) mixed with a 20-fold excess of unlabeled GppNHp Rab8a_(1-176); 25 °C
# [14] = target: B2; assay: ITC; 600–800 µM CH domain titrated into 40–60 µM bMERB domain; 20 mM Hepes 7.5, 150 mM NaCl, 1 mM TCEP; 25 °C; one-site-binding model
# [15] = target: F-actin (rabbit skeletal muscle actin, polymerized) (rabbit, UniProt P68135 1-377); assay: co-sedimentation; 10 µM F-actin with 0–60 µM EHBP1 CH domain, 1 h RT; 5 mM Tris-HCl pH 7.5, 0.18 mM CaCl2, 15 mM KCl, 1 mM DTT, 1.8 mM NaN3; 100,000 g 1 h 4 °C; densitometry of SDS-PAGE
# [16] = target: B2; assay: stopped-flow fluorescence kinetics; dissociation: complex of Cy3 labeled CH with full-length bMERB domain (2 µM) mixed with a 20-fold excess of unlabeled CH domain; CH buffer
# [17] = target: B2; assay: stopped-flow fluorescence kinetics; association: 0.5 µM Cy3 labeled CH domain with 2–16 µM full-length bMERB domain; koff from the y-axis intercept; CH buffer, 25 °C
# [18] = target: B3; assay: ITC; 600–800 µM CH domain titrated into 40–60 µM bMERB domain; 20 mM Hepes 7.5, 150 mM NaCl, 1 mM TCEP; 25 °C; one-site-binding model
# T9 sequence (Q8NDI1 1060-1212 N1187A): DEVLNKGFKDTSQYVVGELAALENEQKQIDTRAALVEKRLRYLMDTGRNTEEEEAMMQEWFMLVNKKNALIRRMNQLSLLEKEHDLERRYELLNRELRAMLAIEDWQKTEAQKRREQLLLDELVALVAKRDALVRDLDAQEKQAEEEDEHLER
# T6 sequence (Q8NDI1 1060-1212 V1186A): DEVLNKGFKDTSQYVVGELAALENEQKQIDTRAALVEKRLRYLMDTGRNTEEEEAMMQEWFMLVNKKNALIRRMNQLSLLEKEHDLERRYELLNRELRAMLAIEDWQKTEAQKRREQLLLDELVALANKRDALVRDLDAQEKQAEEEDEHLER
# T8 sequence (Q8NDI1 1060-1212 R1189A): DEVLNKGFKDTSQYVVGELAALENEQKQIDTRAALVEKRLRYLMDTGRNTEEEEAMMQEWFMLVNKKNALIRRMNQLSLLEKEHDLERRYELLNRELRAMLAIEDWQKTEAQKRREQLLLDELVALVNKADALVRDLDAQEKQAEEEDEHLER
# T4 sequence (Q8NDI1 1060-1212 L1182S): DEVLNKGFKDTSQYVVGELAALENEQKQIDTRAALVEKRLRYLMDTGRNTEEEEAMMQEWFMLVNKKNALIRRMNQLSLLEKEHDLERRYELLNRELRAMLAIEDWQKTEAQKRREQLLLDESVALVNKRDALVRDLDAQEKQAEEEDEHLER
# T5 sequence (Q8NDI1 1060-1212 L1179S): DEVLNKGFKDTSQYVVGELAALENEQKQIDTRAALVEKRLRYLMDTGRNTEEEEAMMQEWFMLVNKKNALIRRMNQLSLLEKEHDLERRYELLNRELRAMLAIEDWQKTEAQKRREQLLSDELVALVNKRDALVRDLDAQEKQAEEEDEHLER
# T7 sequence (Q8NDI1 1060-1212 L1156S): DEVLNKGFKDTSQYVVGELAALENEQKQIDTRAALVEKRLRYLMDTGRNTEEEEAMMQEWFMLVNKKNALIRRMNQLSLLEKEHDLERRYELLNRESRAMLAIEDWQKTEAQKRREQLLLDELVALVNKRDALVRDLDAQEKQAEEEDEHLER
binder,measurement,setting,value
B1,fold decrease in binding affinity against the wild-type bMERB domain,[1],10 fold
same,fold decrease in binding affinity against the wild-type bMERB domain,[2],10 fold
same,fold reduction in binding affinity against the wild-type bMERB domain,[3],> 30 fold
same,fold reduction in affinity against the wild-type bMERB domain,[4],47 fold
same,fold reduction in binding affinity against the wild-type bMERB domain,[5],20 fold
same,fold reduction in binding affinity against the wild-type bMERB domain,[6],5 fold
"EHBP1 full-length bMERB domain M1116A (domain or fragment, EHBP1 full-length bMERB domain, human, residues 1060-1212 as the wild-type construct; numbers on isoform 1 (Q8NDI1-1); also called bMERB_(M1116A); source: E. coli BL21 DE3-RIL, purified) not shown",binding result,[7],binds
"EHBP1 bMERB domain Q1176A (domain or fragment, EHBP1 bMERB domain, human, residues 1060-1212 as the wild-type construct; numbers on isoform 1 (Q8NDI1-1); source: E. coli BL21 DE3-RIL, purified) not shown",binding result,[8],binds
"EHBP1 full-length bMERB domain F1120A (domain or fragment, EHBP1 full-length bMERB domain, human, residues 1060-1212 as the wild-type construct; numbers on isoform 1 (Q8NDI1-1); also called bMERB_(F1120A); source: E. coli BL21 DE3-RIL, purified) not shown",binding result,[7],binds
EHBP1 bMERB domain lacking the N-terminal helix (helices 2-3) (domain or fragment) not shown,Kd,[8],300 nM
B2,binding result,[9],binds
same,binding result,[10],binds
same,Kd,[8],310 nM
same,binding result,[11],binds
same,Kd,[12],480 nM
same,koff,[12],13.4 s⁻¹
same,kon,[12],2.79e+07 M⁻¹ s⁻¹
same,koff,[13],13.8 s⁻¹
B3,Kd,[14],1200 nM
same,stoichiometry N,[14],1
same,Kd,[15],9340 ± 1860 nM
"Cy3 labeled EHBP1 CH domain (domain or fragment, human, Cy3 on the N-terminus, EHBP1 central CH domain, human; also called Cy3-CH; source: E. coli BL21 DE3-RIL, purified; labelled with Cy3-thioester) GRKPNASQSLLVWCKEVTKNYRGVKITNFTTSWRNGLSFCAILHHFRPDLIDYKSLNPQDIKENNKKAYDGFASIGISRLLEPSDMVLLAIPDKLTVMTYLYQIRAHFSGQ",koff,[16],117 s⁻¹
same,Kd,[17],3750 to 4230 nM
same,koff,[17],104 s⁻¹
same,kon,[17],2.76e+07 M⁻¹ s⁻¹
EHBP1 bMERB_(H1-2) (bMERB domain lacking the C-terminal helix) (domain or fragment) not shown,Kd,[18],780 nM
"EHBP1 CH domain D532A (domain or fragment, human, EHBP1 CH domain, human; numbers on isoform 1 (Q8NDI1-1); source: E. coli BL21 DE3-RIL, purified) GRKPNASQSLLVWCKEVTKNYRGVKITNFTTSWRNGLSFCAILHHFRPDLIDYKSLNPQDIKENNKKAYDGFASIGISRLLEPSDMVLLAIPAKLTVMTYLYQIRAHFSGQ",fold reduction in binding affinity against the wild-type CH domain,[14],> 40 fold
